Assay results reported in PMC11897886 (Nucleic Acids Research, 2024).

Columns and labels:
[1] = target: T1, CBP-Upf1-CH-HD (S. cerevisiae, UniProt P30771 54-851); assay: native gel or EMSA
T1 sequence: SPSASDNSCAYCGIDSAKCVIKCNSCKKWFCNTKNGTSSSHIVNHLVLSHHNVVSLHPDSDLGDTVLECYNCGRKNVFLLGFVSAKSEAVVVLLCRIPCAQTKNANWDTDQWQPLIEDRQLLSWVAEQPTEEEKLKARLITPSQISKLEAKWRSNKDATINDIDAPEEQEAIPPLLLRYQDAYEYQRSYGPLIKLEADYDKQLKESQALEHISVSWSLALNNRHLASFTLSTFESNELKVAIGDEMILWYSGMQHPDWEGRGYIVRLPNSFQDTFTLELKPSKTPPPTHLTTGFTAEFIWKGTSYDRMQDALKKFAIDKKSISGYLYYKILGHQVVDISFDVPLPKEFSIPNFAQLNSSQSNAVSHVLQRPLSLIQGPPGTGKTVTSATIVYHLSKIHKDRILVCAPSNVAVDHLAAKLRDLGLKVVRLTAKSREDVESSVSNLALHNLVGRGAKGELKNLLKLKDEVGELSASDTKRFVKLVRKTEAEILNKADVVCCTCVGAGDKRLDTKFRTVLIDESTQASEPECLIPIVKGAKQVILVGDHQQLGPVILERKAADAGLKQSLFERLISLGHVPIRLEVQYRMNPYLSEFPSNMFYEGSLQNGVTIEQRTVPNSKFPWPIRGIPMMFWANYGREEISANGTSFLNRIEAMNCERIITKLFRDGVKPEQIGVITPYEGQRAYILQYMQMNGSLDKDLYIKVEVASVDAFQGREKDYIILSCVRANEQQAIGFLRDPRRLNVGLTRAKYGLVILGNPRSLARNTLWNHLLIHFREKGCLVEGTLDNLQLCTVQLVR

[2] = target: T2, CBP-Upf1-FL (S.c. Upf1 full-length) (S. cerevisiae, UniProt P30771 1-971); assay: pull-down
T2 sequence: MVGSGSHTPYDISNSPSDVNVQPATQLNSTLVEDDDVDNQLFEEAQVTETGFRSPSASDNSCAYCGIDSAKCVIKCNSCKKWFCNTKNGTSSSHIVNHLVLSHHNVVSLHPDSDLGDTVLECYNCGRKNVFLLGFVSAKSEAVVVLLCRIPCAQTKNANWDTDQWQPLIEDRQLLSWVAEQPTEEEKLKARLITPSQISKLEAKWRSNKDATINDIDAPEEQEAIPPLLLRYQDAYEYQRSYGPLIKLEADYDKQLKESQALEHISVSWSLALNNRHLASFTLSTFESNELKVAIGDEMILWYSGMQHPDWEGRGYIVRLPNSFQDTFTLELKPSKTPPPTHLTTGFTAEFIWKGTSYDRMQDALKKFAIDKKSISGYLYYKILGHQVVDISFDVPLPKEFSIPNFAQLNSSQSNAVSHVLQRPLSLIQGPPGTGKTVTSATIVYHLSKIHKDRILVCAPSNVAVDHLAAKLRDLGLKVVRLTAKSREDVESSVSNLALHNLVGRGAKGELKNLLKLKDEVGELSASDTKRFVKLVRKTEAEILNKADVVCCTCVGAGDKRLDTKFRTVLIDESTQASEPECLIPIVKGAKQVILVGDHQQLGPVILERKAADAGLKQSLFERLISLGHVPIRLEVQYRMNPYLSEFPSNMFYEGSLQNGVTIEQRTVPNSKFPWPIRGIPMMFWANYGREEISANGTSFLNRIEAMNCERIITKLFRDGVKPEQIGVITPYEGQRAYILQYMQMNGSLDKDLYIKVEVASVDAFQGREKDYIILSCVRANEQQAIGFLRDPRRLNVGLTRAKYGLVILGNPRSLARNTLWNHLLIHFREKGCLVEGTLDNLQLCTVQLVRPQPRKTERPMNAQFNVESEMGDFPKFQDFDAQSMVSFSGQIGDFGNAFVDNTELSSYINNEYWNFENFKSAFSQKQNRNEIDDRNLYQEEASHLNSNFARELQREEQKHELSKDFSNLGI

B1: Nmd4-His (C-terminal His-tagged Nmd4) (natural protein)
chain: MTQYNFIIDASAFEKGLGNIKRWCSDCTEAVTLNFYIPTFTLNELDFLQQRRKSFAARESLKFIDRLDDSKFANLKVFIEFPEVLDIILWSDVMEHNDSSGKINIAKLPKRLKNLLKSCIYKCYLEGNEGLHWFLISEDPQIREMAMQCNIPSCSIVDVDSILSKDMNDKSFRESEKFNNMMLKNGTKEESENGREIIRTNFNKTVYASRGTGELWSP
binding result [1]: binds | binding result [2]: binds
